{"source": "patent US20190353642A1", "about": "(WUHAN INSTITUTE OF VIROLOGY CHINESE ACADEMY OF SCIENCES, published 2019)", "binders": {"B1": {"name": "flag-tagged truncated CD2AP 1-330 aa (other)", "chain": "MVDYIVEYDYDAVHDDELTIRVGEIIRNVKKLQEEGWLEGELNGRRGMFPDNFVKEIKRETEFKDDSLPIKRERHGNVASLVQRISTYGLPAGGIQPHPQTKNIKKKTKKRQCKVLFEYIPQNEDELELKVGDIIDINEEVEEGWWSGTLNNKLGLFPSNFVKELEVTDDGETHEAQDDSETVLAGPTSPIPSLGNVSETASGSVTQPKKIRGIGFGDIFKEGSVKLRTRTSSSETEEKKPEKPLILQSLGPKTQSVEITKTDTEGKIKAKEYCRTLFAYEGTNEDELTFKEGEIIHLISKETGEAGWWRGELNGKEGVFPDNFAVQINE", "notes": "Contains all three SH3 domains; not shown: Flag tag"}, "B2": {"name": "flag-tagged truncated CD2AP 1-268 aa (other)", "chain": "MVDYIVEYDYDAVHDDELTIRVGEIIRNVKKLQEEGWLEGELNGRRGMFPDNFVKEIKRETEFKDDSLPIKRERHGNVASLVQRISTYGLPAGGIQPHPQTKNIKKKTKKRQCKVLFEYIPQNEDELELKVGDIIDINEEVEEGWWSGTLNNKLGLFPSNFVKELEVTDDGETHEAQDDSETVLAGPTSPIPSLGNVSETASGSVTQPKKIRGIGFGDIFKEGSVKLRTRTSSSETEEKKPEKPLILQSLGPKTQSVEITKTDTEGKI", "notes": "not shown: Flag tag"}, "B3": {"name": "Flag-tagged NS5A derived from HCV genotype 2a strain JFH1 (pRK-Flag-NS5A), full length (other)", "chain": "SGSWLRDVWDWVCTILTDFKNWLTSKLFPKLPGLPFISCQKGYKGVWAGTGIMTTRCPCGANISGNVRLGSMRITGPKTCMNTWQGTFPINCYTEGQCAPKPPTNYKTAIWRVAASEYAEVTQHGSYSYVTGLTTDNLKIPCQLPSPEFFSWVDGVQIHRFAPTPKPFFRDEVSFCVGLNSYAVGSQLPCEPEPDADVLRSMLTDPPHITAETAARRLARGSPPSEASSSVSQLSAPSLRATCTTHSNTYDVDMVDANLLMEGGVAQTEPESRVPVLDFLEPMAEEESDLEPSIPSECMLPRSGFPRALPAWARPDYNPPLVESWRRPDYQPPTVAGCALPPPKKAPTPPPRRRRTVGLSESTISEALQQLAIKTFGQPPSSGDAGSSTGAGAAESGGPTSPGEPAPSETGSASSMPPLEGEPGDPDLESDQVELQPPPQGGGVAPGSGSGSWSTCSEEDDTTVCC", "notes": "not shown: Flag tag from vector pRK-7 Flag"}, "B4": {"name": "HA-tagged full length NS5A (other)", "chain": "SGSWLRDVWDWVCTILTDFKNWLTSKLFPKLPGLPFISCQKGYKGVWAGTGIMTTRCPCGANISGNVRLGSMRITGPKTCMNTWQGTFPINCYTEGQCAPKPPTNYKTAIWRVAASEYAEVTQHGSYSYVTGLTTDNLKIPCQLPSPEFFSWVDGVQIHRFAPTPKPFFRDEVSFCVGLNSYAVGSQLPCEPEPDADVLRSMLTDPPHITAETAARRLARGSPPSEASSSVSQLSAPSLRATCTTHSNTYDVDMVDANLLMEGGVAQTEPESRVPVLDFLEPMAEEESDLEPSIPSECMLPRSGFPRALPAWARPDYNPPLVESWRRPDYQPPTVAGCALPPPKKAPTPPPRRRRTVGLSESTISEALQQLAIKTFGQPPSSGDAGSSTGAGAAESGGPTSPGEPAPSETGSASSMPPLEGEPGDPDLESDQVELQPPPQGGGVAPGSGSGSWSTCSEEDDTTVCC", "notes": "also called HA-tagged NS5A; not shown: HA tag from vector pRK-7 HA"}, "B5": {"name": "NS5A of HCV JFH1 in infected Huh7.5.1 cells (other)", "chain": "SGSWLRDVWDWVCTILTDFKNWLTSKLFPKLPGLPFISCQKGYKGVWAGTGIMTTRCPCGANISGNVRLGSMRITGPKTCMNTWQGTFPINCYTEGQCAPKPPTNYKTAIWRVAASEYAEVTQHGSYSYVTGLTTDNLKIPCQLPSPEFFSWVDGVQIHRFAPTPKPFFRDEVSFCVGLNSYAVGSQLPCEPEPDADVLRSMLTDPPHITAETAARRLARGSPPSEASSSVSQLSAPSLRATCTTHSNTYDVDMVDANLLMEGGVAQTEPESRVPVLDFLEPMAEEESDLEPSIPSECMLPRSGFPRALPAWARPDYNPPLVESWRRPDYQPPTVAGCALPPPKKAPTPPPRRRRTVGLSESTISEALQQLAIKTFGQPPSSGDAGSSTGAGAAESGGPTSPGEPAPSETGSASSMPPLEGEPGDPDLESDQVELQPPPQGGGVAPGSGSGSWSTCSEEDDTTVCC", "notes": "also called endogenous NS5A"}, "B6": {"name": "flag-tagged truncated CD2AP 1-107 aa (other)", "chain": "MVDYIVEYDYDAVHDDELTIRVGEIIRNVKKLQEEGWLEGELNGRRGMFPDNFVKEIKRETEFKDDSLPIKRERHGNVASLVQRISTYGLPAGGIQPHPQTKNIKKK", "notes": "Contains the first SH3 domain; not shown: Flag tag"}}, "key": {"[1]": {"target": "B4", "experiment": "co-IP with anti-flag antibody, HEK 293T cells, blot with anti-HA"}, "[2]": {"target": "T1, HA-tagged CD2AP (pRK-HA-CD2AP), human, full length (human, UniProt Q9Y5K6 1-639)", "T1 construct": "Over-expressed in HEK 293T cells and tested in cell lysate by co-IP; also called CD2 associated protein; not shown: HA tag from vector pRK-7 HA", "experiment": "co-IP with anti-flag antibody from HEK 293T cells over-expressing both, blot with anti-HA"}, "[3]": {"target": "T2, flag-tagged truncated CD2AP 60-639 aa (human, UniProt Q9Y5K6 60-639)", "T2 construct": "No first SH3 domain, all other CD2AP domains kept; also called CD2AP lacking the first SH3 domain; not shown: Flag tag", "T2 sequence (Q9Y5K6 60-639)": "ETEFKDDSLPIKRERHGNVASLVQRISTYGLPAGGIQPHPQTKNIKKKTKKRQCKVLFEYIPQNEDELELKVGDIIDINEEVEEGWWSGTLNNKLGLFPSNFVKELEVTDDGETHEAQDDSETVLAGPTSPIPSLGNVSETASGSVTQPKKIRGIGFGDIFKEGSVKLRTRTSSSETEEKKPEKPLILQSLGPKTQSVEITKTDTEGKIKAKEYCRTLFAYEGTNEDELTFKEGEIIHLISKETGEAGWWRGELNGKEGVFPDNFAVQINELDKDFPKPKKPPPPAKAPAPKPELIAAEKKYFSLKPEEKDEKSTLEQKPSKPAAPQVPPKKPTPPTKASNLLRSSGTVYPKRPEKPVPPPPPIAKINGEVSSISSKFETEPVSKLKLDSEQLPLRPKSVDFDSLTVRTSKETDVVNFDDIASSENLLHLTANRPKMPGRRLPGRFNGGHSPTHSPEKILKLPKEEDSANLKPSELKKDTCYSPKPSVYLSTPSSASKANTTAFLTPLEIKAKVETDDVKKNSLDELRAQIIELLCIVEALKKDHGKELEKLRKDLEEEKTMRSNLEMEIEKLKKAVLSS", "experiment": "co-IP with anti-flag antibody, HEK 293T cells, blot with anti-HA"}, "[4]": {"target": "T3, flag-tagged CD2AP 1-639 aa (full length) (human, UniProt Q9Y5K6 1-639)", "T3 construct": "also called Full length CD2AP; not shown: Flag tag", "experiment": "co-IP with anti-flag antibody, HEK 293T cells, blot with anti-HA"}, "[5]": {"target": "T4, CD2AP, endogenous, in Huh7.5.1 cells (human, UniProt Q9Y5K6 1-639)", "T4 construct": "Endogenous protein of human hepatoma Huh7.5.1 cells, in cell lysate", "experiment": "endogenous co-IP, both directions, Huh7.5.1 cells infected with HCV JFH1"}}}
{"binder": "B1", "values": [{"measurement": "binding result", "setting": "[1]", "value": "binds"}]}
{"binder": "B2", "values": [{"measurement": "binding result", "setting": "[1]", "value": "binds"}]}
{"binder": "B3", "values": [{"measurement": "binding result", "setting": "[2]", "value": "binds"}]}
{"binder": "B4", "values": [{"measurement": "binding result", "setting": "[3]", "value": "binds"}, {"measurement": "binding result", "setting": "[4]", "value": "binds"}]}
{"binder": "B5", "values": [{"measurement": "binding result", "setting": "[5]", "value": "binds"}]}
{"binder": "B6", "values": [{"measurement": "binding result", "setting": "[1]", "value": "binds"}]}
